Results as given in patent EP4360658A1, “COMPOUNDS FOR DETECTION OF ORAL INFLAMMATION” (Julius-Maximilians-Universität Würzburg, priority 2022, dated 2024).
“And” between values parts separate entries of the source, which are not always exact repeats. Equal values may be shown once. *1 amine or outer side, *2 acyl side, *3 side chain or, on linkers, in order; H or OH if unused. Where a SMILES comes first, the peptide text is derived from it. Primed or numbered codes have the meaning given here. Where no end group is shown, it is not given here. [ ]: non-standard residue; d: D form. The star is where a group is joined. Aha′ = its azide, alkyne or alkene has reacted where a group follows in round brackets; Den = denatonium (bitter payload), attached at the C-terminus via CH2-NH2; DBCO‑Sulfo‑Cy5 = fluorescent dye clicked to Aha; AFDye488‑DBCO = fluorescent dye clicked to Aha; X1 = CC[N+](CC)(CC(=O)[*:2])Cc1ccc(CN[*:1])cc1; NH(2,6-Me2-phenyl) = Cc1cccc(C)c1N*

Tests used:
[1] = target: T1, MMP-1 (Homo sapiens, UniProt P03956); test: Sensor cleavage by MMP-1; format: biochemical; details: for cleavage rate (multiplexing): sensors in mixture, 17.5 nM MMP-1, incubation 15 minutes
T1 construct: purchased Merck Millipore
T1 sequence (P03956 100-469): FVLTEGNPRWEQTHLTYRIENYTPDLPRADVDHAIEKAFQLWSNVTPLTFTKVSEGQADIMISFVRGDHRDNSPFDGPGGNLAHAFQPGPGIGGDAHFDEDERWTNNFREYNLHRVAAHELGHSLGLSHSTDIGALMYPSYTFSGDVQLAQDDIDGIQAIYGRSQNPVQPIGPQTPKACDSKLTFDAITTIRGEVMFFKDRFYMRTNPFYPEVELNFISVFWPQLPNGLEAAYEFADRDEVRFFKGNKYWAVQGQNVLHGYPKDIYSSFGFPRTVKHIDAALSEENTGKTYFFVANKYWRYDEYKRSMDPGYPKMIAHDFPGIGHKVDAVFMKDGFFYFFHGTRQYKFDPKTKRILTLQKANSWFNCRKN
Method: (§1) Pro-Matrix-metalloproteinases (MMP-1, MMP-8, and MMP-9) (Merck Millipore, Burlington, MA, USA) were activated prior usage. To activate Pro-MMPs a fresh 50 mM 4-Aminophenylmercuric acetate (APMA) stock solution in 0.1 M NaOH was prepared. The stock solution was added in a 10:1 (v/v) ratio to Pro-MMPs (Pro-MMPs:APMA) to reach a final concentration of 5 mM APMA. The solution was incubated for 3 h at 37 °C without agitation. Following incubation, the activated MMPs were stored in aliquots at -80 °C.
Lyophilized sensors and Y3 were solubilized in MMP buffer (200 mM NaCl, 50 mM Tris-HCI, 5 mM CaCl2, 1 µM ZnCl2, 0.05 % Brij35 at pH 6.8-7.0) to 1 mM stock solutions. Cleavage was performed at 37 °C under rigorous shaking in 30 µL MMP buffer containing 0.1 mM of the respective sensor/peptide and 900 ng/mL MMP-8, or a molar equivalent of MMP-1 or MMP-9 for single cleavage conditions. Cleavage of sensors in mixture was performed with sensor concentrations of 25 µM for each sensor. The reaction was stopped via addition of 5 mM EDTA final concentration.
(§2) Experiments were performed n = 5. Cleavage was analyzed via fluorescent detection via HPLC with following wavelengths: SP3 (absorption: 646 nm; emission: 661 nm), SP5 (absorption: 494 nm; emission: 517 nm), SP7 (absorption: 553 nm; emission: 566 nm) and SN3 (absorption: 280 nm; emission: 350 nm). Y3 cleavage was analyzed as described before. Cleavage percent was analyzed by comparing the AUC of the main peak from the compound incubated with MMP and in absence of MMP. Cleavage percent was then normalized by multiplying cleavage results with a correction factor. The correction factor was determined individually for every experiment/MMP by dividing Y3 cleavage results acquired in protease sensitive linker identification study by cleavage results of Y3 in individual sensor cleavage experiments (Figure 3 D-F).

[2] = target: T2, MMP-9 (Homo sapiens, UniProt P14780); test: Sensor cleavage by MMP-9; format: biochemical
T2 construct: purchased Merck Millipore
Method: as §1
(§3) Lyophilized sensors and Y3 were solubilized in MMP buffer (200 mM NaCl, 50 mM Tris-HCI, 5 mM CaCl2, 1 µM ZnCl2, 0.05 % Brij35 at pH 6.8-7.0) to 1 mM stock solutions. […]
as §2, with “Cleavage percent was then normalized by multiplying cleavage results with a correction factor.” left out

[3] = target: T3, MMP-8 (Homo sapiens, UniProt P22894); test: Sensor cleavage by MMP-8; format: biochemical; details: sensors in mixture, 17.5 nM MMP-8, incubation 15 minutes
T3 construct: purchased Merck Millipore
Method: as §1, §3
as §2, with “Cleavage percent was then normalized by multiplying cleavage results with a correction factor.” left out

[4] = Sensor cleavage in human saliva; format: biochemical; details: for cleavage in saliva from patients compared to saliva from healthy donors: periodontitis patients vs. healthy donors
Method: Lyophilized sensors were solubilized in MMP buffer to 0.05 mM each and mixed with saliva 1:1 (v/v) to reach a final concentration of 25 µM per sensor. The solution was incubated for 15 min at 37 °C under rigorous shaking and the reaction was stopped via addition of 5 mM EDTA final concentration. The samples were diluted 1:2 with acetonitrile, 1:5 with water (1:10 total dilution) and analyzed via HPLC as described before. Cleavage efficiency was analyzed by comparing the AUC of the newly formed peaks compared to the total AUC of the combined peaks. Peaks with LU < 1 were considered below the limit of detection and set to 0.5 LU for further analysis.
The study participants were recruited from patients visiting the department of Periodontology of the University Hospital of Würzburg, Germany between Oct/2019 to Dec/2020. Periodontally healthy patients as well as patients with periodontal diseases of varying severity (gingivitis, periodontitis) were included. The periodontally diseased patients were in different stages of treatment (untreated patients before active initial therapy, treated recall patients in regular supportive aftercare). Eligibility criteria were age 18 to 99 years. Patients of both sexes, with and without periodontal disease were included in the study.
Periodontal examinations were obtained from all study participants comprising the documentation of missing teeth, probing pocket depths (PPD), recession, bleeding on probing (BoP), clinical attachment level (CAL), furcation involvement, tooth mobility and plaque control record (PlaCR). Demographic details and general health profile of the participants including current intake of medications and frequency of smoking was documented using a questionnaire. CAL, PPD and BoP were recorded at 6 sites per tooth (mesio-buccal, buccal, disto-buccal, disto-oral, oral, mesio-oral) using a pressure calibrated computer aided Florida Probe handpiece. Any bleeding spot appearing within 30 seconds after probing was recorded as a BoP-positive site. Furcation involvement was determined using a manual furcation probe (Nabers Probe). The total amount of periodontal inflammation present in each patient was calculated from the recorded BoP, CAL and PPD scores using the PISA-Index. Collected samples were quality-controlled hosted by the certified centralized biobank of the medical faculty of the University of Würzburg. […]
Saliva samples were prepared as above. The MMP-8 activity assay (Quickzyme, Leiden, Netherlands) was performed following provided protocols. In brief, reagents were prepared as described by protocols. […] Absorbance was measured at 405 nm in a microplate reader (Tecan Infinite F50, Crailsheim, Germany) at 0, 2, 4 and 6 h. […]

[5] = target: MMP mix (a mixture of MMPs 1, 8, and 9); test: cell-based or functional assay
[6] = control saliva samples, per patient, sensors in mixture, 25 µM per sensor, 15 min at 37 °C

T3 sequence (P22894 101-467): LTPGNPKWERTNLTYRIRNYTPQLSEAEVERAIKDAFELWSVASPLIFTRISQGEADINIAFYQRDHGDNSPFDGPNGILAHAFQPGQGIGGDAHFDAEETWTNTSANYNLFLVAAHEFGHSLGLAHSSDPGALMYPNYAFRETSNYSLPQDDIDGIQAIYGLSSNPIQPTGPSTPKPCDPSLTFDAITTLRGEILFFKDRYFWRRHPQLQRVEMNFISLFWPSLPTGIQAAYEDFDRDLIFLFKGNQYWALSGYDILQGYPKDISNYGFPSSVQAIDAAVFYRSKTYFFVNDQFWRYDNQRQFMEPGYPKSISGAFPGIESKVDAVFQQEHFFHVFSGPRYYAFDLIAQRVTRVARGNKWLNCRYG
T2 sequence (P14780 107-707 limits assumed): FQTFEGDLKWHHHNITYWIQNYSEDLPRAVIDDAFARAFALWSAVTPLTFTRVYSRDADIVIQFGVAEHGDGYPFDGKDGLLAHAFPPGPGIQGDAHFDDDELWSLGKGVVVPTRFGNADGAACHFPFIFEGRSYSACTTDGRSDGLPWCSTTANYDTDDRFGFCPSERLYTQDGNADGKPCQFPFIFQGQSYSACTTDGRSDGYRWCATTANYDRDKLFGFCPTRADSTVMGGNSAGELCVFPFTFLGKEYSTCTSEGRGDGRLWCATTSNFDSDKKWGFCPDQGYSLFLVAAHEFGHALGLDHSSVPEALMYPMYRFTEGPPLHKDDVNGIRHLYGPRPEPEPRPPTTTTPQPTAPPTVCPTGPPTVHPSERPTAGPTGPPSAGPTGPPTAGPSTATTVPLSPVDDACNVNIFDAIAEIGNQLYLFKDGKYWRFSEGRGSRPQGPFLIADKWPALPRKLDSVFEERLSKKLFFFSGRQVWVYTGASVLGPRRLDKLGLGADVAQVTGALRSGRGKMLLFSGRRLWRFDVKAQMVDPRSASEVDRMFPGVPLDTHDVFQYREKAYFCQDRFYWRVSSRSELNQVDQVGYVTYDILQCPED

## CC[C@H](C)[C@H](NC(=O)CNC(=O)[C@H](CCC(N)=O)NC(=O)[C@@H]1CCCN1C(=O)CNC(=O)[C@H](CO)NC(=O)CNC(=O)[C@H](CO)NC(=O)CNC(C)=O)C(=O)N[C@@H](C)C(=O)NCC(=O)N[C@@H](C)C(=O)NCC(=O)N[C@@H](CO)C(=O)NCC(=O)N[C@@H](CO)C(=O)NCc1ccc(C[N+](CC)(CC)CC(=O)Nc2c(C)cccc2C)cc1 [S1, Ac-GSGS-GPQGIAGA-GSGS-Den] (Ac-GSGSGPQGIAGAGSGS[X1]-{NH(2,6-Me2-phenyl)})
[1]; MMP-1, 15 min, concentrations ranging from 1 to 10 nM
  maximum cleavage: 7%
[2]; MMP-9, 15 min, concentrations ranging from 1 to 10 nM
  maximum cleavage: 10%

## SY3: sensor from PSL-Y3: Y3a with C-terminal L-azidohomoalanine clicked to fluorescent dye DBCO-Sulfo-Cy5 (Ac-GSGSGPLALVGAGSGS[Aha′](DBCO‑Sulfo‑Cy5))
[1]
  cleavage rate (multiplexing): cleaved most effectively
[3]
  cleavage rate (multiplexing): cleaved most effectively
[4]; [6]
  Cleavage SY3: 1.39% (2×) and 3.77% and 3.71% and 2.96% and 0.34% and 4.60% and 1.80% and 5.40% and 0.29% and 11.05% and 1.60% and 1.07% and 0.38% and 0.37% and 0.31%
[4]
  cleavage in saliva from patients compared to saliva from healthy donors: discriminated against periodontitis

## SY5: sensor from PSL-Y5: Y5a with C-terminal L-azidohomoalanine clicked to fluorescent dye AFDye488-DBCO (Ac-GSGSGALELVGAGSGS[Aha′](AFDye488‑DBCO))
[1]
  cleavage rate (multiplexing): not MMP-1 or MMP-9
[3]
  cleavage rate (multiplexing): responded to MMP-8
[2]; sensors in mixture, 17.5 nM MMP-9, incubation 15 minutes
  cleavage rate (multiplexing): not MMP-1 or MMP-9
[4]; [6]
  Cleavage SY5: 2.55% and 4.69% and 2.64% and 2.11% and 0.17% (2×) and 3.56% and 2.25% and 4.88% and 0.14% and 11.04% and 2.84% and 0.18% (2×) and 0.16% and 0.15%
[4]
  cleavage in saliva from patients compared to saliva from healthy donors: discriminated against periodontitis

## Ac-GSGSGPQGIAGAGSGS-Den [Sensor S1, Ac-GSGS-GPQGIAGA-GSGS-Den]
[5]
  cleavage rate (4 nM MMP mix, 5 min, HPLC): < 1%
  cleavage rate (8 nM MMP mix, 5 min, HPLC): > 20%
